Results published in paper PMC4431184, “The Use of the LanthaScreen TR-FRET CAR Coactivator Assay in the Characterization of Constitutive Androstane Receptor (CAR) Inverse Agonists” (Sensors (Basel, Switzerland), 2015).
Ends that are not written are not given here.

Molecular target: T1, glutathione-S-transferase (GST) tagged human CAR ligand-binding domain (LBD) (human)
T1 construct: Component of a bought kit; It was held in the assay by a terbium-labelled anti-GST antibody (a tool only); also called CAR LBD; CAR-LBD
T1 sequence (Q14994 whole entry, looked up): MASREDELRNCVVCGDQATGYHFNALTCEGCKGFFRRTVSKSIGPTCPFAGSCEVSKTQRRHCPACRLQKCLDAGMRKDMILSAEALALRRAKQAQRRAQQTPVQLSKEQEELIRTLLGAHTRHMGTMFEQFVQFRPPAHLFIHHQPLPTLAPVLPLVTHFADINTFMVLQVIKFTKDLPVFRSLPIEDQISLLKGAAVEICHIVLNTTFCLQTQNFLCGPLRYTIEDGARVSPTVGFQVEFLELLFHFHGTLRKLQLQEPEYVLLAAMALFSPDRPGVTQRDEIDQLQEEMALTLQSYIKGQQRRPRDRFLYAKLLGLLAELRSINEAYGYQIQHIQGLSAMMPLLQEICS
Experiment: FRET or BRET; LanthaScreen TR-FRET as a1, with the agonist CITCO 10 uM; three orders of adding the reagents (Figure 2A, 2B, 2C standard)
Settings: both partners purified

EAEEPSLLKKLLLAPANTQ (also: fluorescein label, position not given here) [fluorescein-labeled PGC1α coactivator peptide]
fold of TR-FRET ratio with CITCO 10 uM over vehicle control (order: CAR LBD, peptide and antibody, CITCO): 1.94 fold | fold of TR-FRET ratio with CITCO 10 uM over vehicle control (order: CITCO, peptide and antibody, CAR LBD): 2.26 fold | fold of TR-FRET ratio with CITCO 10 uM over vehicle control (standard order): 2.56 fold
